{"source": "paper PMC7083883", "about": "“The cryo-EM structure of the SNX–BAR Mvp1 tetramer” (Nature Communications, 2020)", "key": {"[1]": {"molecular_target": "Mvp1 with an engineered PreScission site after residue 99, after cleavage (N-terminal sequence removed) (S. cerevisiae) (UniProt P40959)", "assay": "SEC-MALS; Superdex 200 10/300 GL, 20 mM TRIS/Cl pH 7.4, 250 mM NaCl unless stated (full-length Mvp1 also at 50 and 150 mM NaCl), 1.93 mM beta-mercaptoethanol; 500 ul of 20-21.2 uM protein injected (14 uM for Mvp1 Δ2-78); 0.3 ml/min"}, "Mvp1": {"molecular_target": "T1, Mvp1 (Saccharomyces cerevisiae, UniProt P40959)", "T1 construct": "full-length, codons 1-511; E. coli; N-terminal His6-thrombin fusion or C-terminal MBP fusion cut off with PreScission; tetramer", "T1 sequence (P40959 1-511)": "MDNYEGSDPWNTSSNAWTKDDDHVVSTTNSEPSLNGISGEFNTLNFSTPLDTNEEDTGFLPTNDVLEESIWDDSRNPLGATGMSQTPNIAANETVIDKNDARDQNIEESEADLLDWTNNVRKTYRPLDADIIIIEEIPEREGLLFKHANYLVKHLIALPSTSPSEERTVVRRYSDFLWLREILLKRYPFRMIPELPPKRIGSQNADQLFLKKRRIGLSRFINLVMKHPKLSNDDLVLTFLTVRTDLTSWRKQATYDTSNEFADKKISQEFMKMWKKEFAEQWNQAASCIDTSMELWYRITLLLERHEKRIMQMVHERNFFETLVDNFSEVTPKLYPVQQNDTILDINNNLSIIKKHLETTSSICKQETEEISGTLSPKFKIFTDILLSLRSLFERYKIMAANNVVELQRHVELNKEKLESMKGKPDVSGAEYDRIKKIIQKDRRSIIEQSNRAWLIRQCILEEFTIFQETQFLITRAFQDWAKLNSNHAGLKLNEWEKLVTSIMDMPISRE", "assay": "liposome sedimentation, SDS-PAGE", "type": "binding", "details": "5% PI3P in 95% DOPS liposomes (100 nm, 0.1 mg/ml); 1.2 µM protein; 20 mM Tris pH 7.5, 250 mM NaCl; 21 °C; DOPS-only liposomes as control"}, "[2]": {"molecular_target": "the molecule itself", "assay": "SEC-MALS; Superdex 200 10/300 GL, 20 mM TRIS/Cl pH 7.4, 250 mM NaCl unless stated (full-length Mvp1 also at 50 and 150 mM NaCl), 1.93 mM beta-mercaptoethanol; 500 ul of 20-21.2 uM protein injected (14 uM for Mvp1 Δ2-78); 0.3 ml/min"}, "[3]": {"molecular_target": "the molecule itself", "assay": "cryo-EM structure; 2d and 3d classification of single particles of Mvp1 Mut1, ~5 uM protein, intermediate resolution (~7.7-8.2 Å)"}}}
{"molecule": "Mvp1 with an engineered PreScission site after residue 99, after cleavage (N-terminal sequence removed) (from UniProt P40959 100-511) (domain or fragment)", "values": [{"measurement": "stoichiometry N", "setting": "[1]", "result": 2}]}
{"molecule": "CCCCCCCC/C=C\\CCCCCCCC(=O)OC[C@H](COP(=O)(O)O[C@@H]1[C@H](O)[C@H](OP(=O)(O)O)[C@@H](O)[C@H](O)[C@H]1O)OC(=O)CCCCCCC/C=C\\CCCCCCCC", "note": "[PI3P]", "values": [{"measurement": "liposome sedimentation, SDS-PAGE", "setting": "Mvp1", "result": "purified Mvp1, like SNX8 and several other SNX–BARs, bound to liposomes containing PI3P"}]}
{"molecule": "Mvp1 Δ2-100 (domain or fragment, S. cerevisiae, UniProt P40959 1-511, looked up, Mvp1, S. cerevisiae, codons 1-511 lacking residues 2-100; The purification told for this construct is that of the C-terminal MBP fusion, cleaved with PreScission; residues of the cleavage site probably remain at the C-terminus (surmised); also called Mvp1 lacking its N-terminus; source: E. coli BL21-Codon Plus(DE3)-RIPL, purified (amylose resin, anion exchange, SEC, PreScission cleavage, Superdex …)) MARDQNIEESEADLLDWTNNVRKTYRPLDADIIIIEEIPEREGLLFKHANYLVKHLIALPSTSPSEERTVVRRYSDFLWLREILLKRYPFRMIPELPPKRIGSQNADQLFLKKRRIGLSRFINLVMKHPKLSNDDLVLTFLTVRTDLTSWRKQATYDTSNEFADKKISQEFMKMWKKEFAEQWNQAASCIDTSMELWYRITLLLERHEKRIMQMVHERNFFETLVDNFSEVTPKLYPVQQNDTILDINNNLSIIKKHLETTSSICKQETEEISGTLSPKFKIFTDILLSLRSLFERYKIMAANNVVELQRHVELNKEKLESMKGKPDVSGAEYDRIKKIIQKDRRSIIEQSNRAWLIRQCILEEFTIFQETQFLITRAFQDWAKLNSNHAGLKLNEWEKLVTSIMDMPISRE", "values": [{"measurement": "stoichiometry N", "setting": "[2]", "result": 2}]}
{"molecule": "Mvp1 Δ2-78 (domain or fragment, S. cerevisiae, UniProt P40959 1-511, looked up, source: E. coli BL21-Codon Plus(DE3)-RIPL, purified; not shown: His6 (pET-15b construct); MBP (pMW-variant construct; alternative to the His6 construct), C-terminal, cleaved) MGATGMSQTPNIAANETVIDKNDARDQNIEESEADLLDWTNNVRKTYRPLDADIIIIEEIPEREGLLFKHANYLVKHLIALPSTSPSEERTVVRRYSDFLWLREILLKRYPFRMIPELPPKRIGSQNADQLFLKKRRIGLSRFINLVMKHPKLSNDDLVLTFLTVRTDLTSWRKQATYDTSNEFADKKISQEFMKMWKKEFAEQWNQAASCIDTSMELWYRITLLLERHEKRIMQMVHERNFFETLVDNFSEVTPKLYPVQQNDTILDINNNLSIIKKHLETTSSICKQETEEISGTLSPKFKIFTDILLSLRSLFERYKIMAANNVVELQRHVELNKEKLESMKGKPDVSGAEYDRIKKIIQKDRRSIIEQSNRAWLIRQCILEEFTIFQETQFLITRAFQDWAKLNSNHAGLKLNEWEKLVTSIMDMPISRE", "values": [{"measurement": "stoichiometry N", "setting": "[2]", "result": 2}]}
{"molecule": "Full-length Mvp1 (codons 1-511) (natural protein, S. cerevisiae, UniProt P40959 1-511, looked up, Mvp1, S. cerevisiae sorting nexin with PX and BAR domains, codons 1-511, amplified from genomic DNA of W303A/alpha diploids; Two purification strategies: N-terminal His6 fusion with thrombin site (no cleavage described) or C-terminal MBP fusion cleaved with PreScission; also called wild type; SNX-BAR Mvp1; source: E. coli BL21-Codon Plus(DE3)-RIPL, purified (Ni-IDA or amylose resin, anion …)) MDNYEGSDPWNTSSNAWTKDDDHVVSTTNSEPSLNGISGEFNTLNFSTPLDTNEEDTGFLPTNDVLEESIWDDSRNPLGATGMSQTPNIAANETVIDKNDARDQNIEESEADLLDWTNNVRKTYRPLDADIIIIEEIPEREGLLFKHANYLVKHLIALPSTSPSEERTVVRRYSDFLWLREILLKRYPFRMIPELPPKRIGSQNADQLFLKKRRIGLSRFINLVMKHPKLSNDDLVLTFLTVRTDLTSWRKQATYDTSNEFADKKISQEFMKMWKKEFAEQWNQAASCIDTSMELWYRITLLLERHEKRIMQMVHERNFFETLVDNFSEVTPKLYPVQQNDTILDINNNLSIIKKHLETTSSICKQETEEISGTLSPKFKIFTDILLSLRSLFERYKIMAANNVVELQRHVELNKEKLESMKGKPDVSGAEYDRIKKIIQKDRRSIIEQSNRAWLIRQCILEEFTIFQETQFLITRAFQDWAKLNSNHAGLKLNEWEKLVTSIMDMPISRE", "values": [{"measurement": "stoichiometry N", "setting": "[2]", "result": 4}]}
{"molecule": "Mvp1 198KRI→AAA (natural protein, S. cerevisiae, UniProt P40959 1-511, looked up, Mvp1, S. cerevisiae, codons 1-511 with residues 198-200 KRI changed to AAA in the PX PPII loop; also called Mut1; Mvp1 Mut1; source: E. coli BL21-Codon Plus(DE3)-RIPL, purified; not shown: His6 (pET-15b construct); MBP (pMW-variant construct; alternative to the His6 construct), C-terminal, cleaved) MDNYEGSDPWNTSSNAWTKDDDHVVSTTNSEPSLNGISGEFNTLNFSTPLDTNEEDTGFLPTNDVLEESIWDDSRNPLGATGMSQTPNIAANETVIDKNDARDQNIEESEADLLDWTNNVRKTYRPLDADIIIIEEIPEREGLLFKHANYLVKHLIALPSTSPSEERTVVRRYSDFLWLREILLKRYPFRMIPELPPAAAGSQNADQLFLKKRRIGLSRFINLVMKHPKLSNDDLVLTFLTVRTDLTSWRKQATYDTSNEFADKKISQEFMKMWKKEFAEQWNQAASCIDTSMELWYRITLLLERHEKRIMQMVHERNFFETLVDNFSEVTPKLYPVQQNDTILDINNNLSIIKKHLETTSSICKQETEEISGTLSPKFKIFTDILLSLRSLFERYKIMAANNVVELQRHVELNKEKLESMKGKPDVSGAEYDRIKKIIQKDRRSIIEQSNRAWLIRQCILEEFTIFQETQFLITRAFQDWAKLNSNHAGLKLNEWEKLVTSIMDMPISRE", "values": [{"measurement": "stoichiometry N", "setting": "[3]", "result": 2}]}
